Test results published in paper PMC3469102, “^64Cu-NODAGA-c(RGDyK) Is a Promising New Angiogenesis PET Tracer: Correlation between Tumor Uptake and Integrin α V β 3 Expression in Human Neuroendocrine Tumor Xenografts” (International Journal of Molecular Imaging, 2012).
Like-named read-outs stand apart in the source and are kept apart here.

Key:
in vivo = conditions: nude, mouse, iv, 1.6 MBq, total radioactivity
Method: A longitudinal dynamic study was performed scanning a mouse at 1, 2, and 18 hours after intravenous injection of 1.6 MBq ^64Cu-NODAGA-c(RGDyK), allowing dynamic information of the tracer biodistribution in tumors as well as in the other organs of interest. The PET scans were performed using a small animal PET scanner (MicroPET Focus 120, Siemens Medical Solutions, Knoxville, TN, USA). The energy window for the emission PET scans was set to 350–650 keV and the time resolution was 6 ns. Scan time was 10 min.
The acquired data for emission scan was stored in list-mode format and postprocessed to obtain 2 bytes 128 × 144 × 32 sinograms. Finally, the emission sinograms were reconstructed using MAP Algorithms and resulted into 4-byte 256 × 256 × 95 image sets with a zoom factor of 1.443 and a voxel size of 0.87 × 0.87 × 0.79 mm^3. Furthermore, the emission sinograms were corrected for dead time and decay time. Scatter and attenuation corrections were not applied to the emission data. The system was calibrated to provide activity concentrations as Bq/cc.
The small animal CT scans of the mouse parallel with the PET scans were acquired using a small animal computed tomography (microCAT II, Siemens Medical Solutions). The acquisition time of each CT scan was 6.5 minutes generating 360 projections at 360° arc. The X-ray source settings were 75 kVp, 500 μA, and 270 ms for the voltage, the current, and the exposure time, respectively. The CT projections on the 3,000 × 2,970 CCD crystal were binned by 4 to increase sensitivity and reduce the dataset size. The projections were reconstructed by real-time reconstruction algorithm (the COBRA toolbox) using Shepp-Logan filter into 768 × 768 × 512 matrix with a voxel size of 0.092 × 0.092 × 0.092 mm^3.
The fusion of the PET and CT images was performed manually using the ASIPro Toolbox (Siemens Medical Solutions). Also the analyses of PET images were performed in the ASIPro toolbox.
The measurement of the activity uptake in the tumors and the organs were estimated by manually outlining on CT images. […] The 3D ROIs of the organs were then applied on the corresponding PET images. The results of these ROIs acquired the concentration of the tracer in the organs expressed in percentage of the injected dose per gram tissue (%ID/g).

in vitro = in vitro ADME, nude mice; conditions: nude, mouse, plasma
Method: The product (Figure 1) was used without further purification. HPLC analysis was performed with a Jupiter column, 4u Proteo 90A, 250 × 4.6 mm (Phenomenex, Torrance, CA, USA) and flow 1.5 mL/min. The HPLC mobile phase was solvent A, 0.1% trifluoroacetic acid in water, and solvent B, 0.1% trifluoroacetic acid in acetonitrile. Gradient: 0–2 min 15% B, 2–7 min 15–40% B, and 7–10 min 40–15% B. […] Plasma was mixed with equal amounts of acetonitrile after incubation. The resulting mixture was centrifugated and the supernatant was collected and filtered.

[1] = parameters: species or system mice; conditions: mouse, in vivo
Method: Dose Assessment/EXponential Modeling software (OLINDA/EXM; Vanderbilt University, Nashville, TN, USA). To ensure a conservative estimate, the urinary elimination fraction was set to 75% with voiding intervals of 5 hours. The effective dose for both adult male and female were then calculated using OLINDA/EXM.

[2] = Biodistribution (gamma counting) in mice with H727 xenografts; conditions: female, NMRI nude, mouse, in vivo, iv, 2 MBq, total radioactivity
Method: (§1) Female NMRI (Naval Medical Research Institute) nude mice (6 weeks upon arrival) were acquired from Taconic Europe, Lille Skensved, Denmark. The mice were acclimated one week in the animal facilities before taken into experiments. […] […] Hypnorm^R (Janssen Pharmaceutica NV, Beerse, Belgium)/Dormicum^R (Roche, Basel, Switzerland). Tumors were then grown for 3-4 weeks (average tumor volume 210 mm^3). Animal care and experimental procedures were performed under the approval of the Danish Animal Welfare Council (2006/561-1124). Tumor bearing mice were anesthetized with 3% sevoflurane (Abbott Scandinavia AB, Solna, Sweden) mixed with 35% O2 in N2. […] Mice were sacrificed by neck drawing and tumors, organs (liver, kidneys, lung, spleen, heart, intestine, and muscle) and blood were collected, weighted, and radioactivity measured in a gamma counter (2480 Wizard^2, Perkin Elmer, MA, USA). Tumors were immediately placed in tubes containing RNAlater^R (Ambion Inc., TX, USA), stored overnight at 4°C, RNAlater^R then removed, and tumors stored at -80°C until total RNA extraction and further QPCR experiments were performed. […] (0.97 ± 0.03, 0.64 ± 0.04, 0.65 ± 0.04, and 0.62 ± 0.04) and decreasing further at 18 h p.i.

[3] = tested on: human neuroendocrine tumor xenografts (H727); assay: as above; conditions: female, NMRI nude, mouse, in vivo, iv, 2 MBq, 18 h
Method: as §1

U87MG xenograft tumors = conditions: in vivo; cited from earlier work
Method: The cyclic RGD peptides c(RGDfK) and […] have frequently been used for radiolabeling. c(RGDfK), cyclo [Arg-Gly-Asp-D-Phe-Lys] only differs from c(RGDyK), cyclo [Arg-Gly-Asp-D-Tyr-Lys], in one amino acid, D-Phenylalanine (D-Phe) instead of D-tyrosine (D-Tyr). D-Tyr is more hydrophilic than D-Phe and c(RGDyK) has therefore been reported as preferable due to faster renal excretion. In our study we found a faster decrease of radioactivity in kidneys, intestine, and liver from 1 to 18 h (2.2 to 0.5, 1.6 to 0.4, and 1.1 to 0.4%ID/g) than that reported for ^64Cu-NODAGA-c(RGDfK) in the sam ... || NODAGA-c(RGDy/fK) has been labeled with ^68Ga and NODAGA-c(RGDfK) also with ^64Cu. One paper compared ^68Ga- and ^64Cu-NODAGA-c(RGDfK) and found the highest tracer uptake using ^68Ga-NODAGA-c(RGDfK) compared to ^64Cu-NODAGA-c(RGDfK) (5.2 versus 3.8%ID/g, 1 h p.i. in highly angiogenic U87MG xenograft tumors) but also 3 times higher tumor-to-blood ratio [12]. We found similar T/B ratio (12.7) after 1 hour using ^64Cu-NODAGA-c(RGDyK) as they did with ^64Cu-NODAGA-c(RGDfK). The advantage of ^64Cu labeling is the possibility of delayed imaging up to 12 or 18 h post ...

N=C(N)NCCC[C@@H]1NC(=O)[C@H](CCCCNC(=O)CCC(C(=O)O)N2CCN(CC(=O)O)CCN(CC(=O)O)CC2)NC(=O)[C@@H](Cc2ccc(O)cc2)NC(=O)[C@H](CC(=O)O)NC(=O)CNC1=O (stereo partly drawn) [^64Cu-NODAGA-c(RGDyK), metal not drawn]
tissue to tissue ratio (in vivo): 6.9 ± 0.8
tissue uptake at 1 h (in vivo): 1.15 %ID/g
tissue uptake at 2 h (in vivo): 0.99 %ID/g
tissue uptake at 18 h (in vivo): 0.76 %ID/g
remaining at 24 h, 20 MBq/mL (in vitro): 88%
Residence time, Heart [1]: 3.54E − 03 Bq ∗ h/Bq
Residence time, Kidneys [1]: 2.10E − 01 Bq ∗ h/Bq
Residence time, Liver [1]: 3.00E − 01 Bq ∗ h/Bq
Residence time, Lungs [1]: 1.29E − 02 Bq ∗ h/Bq
Residence time, Small intestine [1]: 2.79E − 01 Bq ∗ h/Bq
Residence time, Spleen [1]: 1.20E − 02 Bq ∗ h/Bq
tissue uptake at 1 h ([2]; %ID/g intestines): 1.6 ± 0.16 %ID/g
tissue uptake at 2 h ([2]; %ID/g intestines): 0.64 ± 0.04 %ID/g
tissue uptake at 18 h ([2]; %ID/g intestines): 0.43 ± 0.04 %ID/g
tissue uptake at 1 h ([2]; %ID/g kidneys): 2.2 ± 0.11 %ID/g
tissue uptake at 2 h ([2]; %ID/g kidneys): 0.97 ± 0.03 %ID/g
tissue uptake at 18 h ([2]; %ID/g kidneys): 0.51 ± 0.02 %ID/g
tissue uptake at 1 h ([2]; %ID/g liver): 1.05 ± 0.17 %ID/g
tissue uptake at 2 h ([2]; %ID/g liver): 0.65 ± 0.04 %ID/g
tissue uptake at 18 h ([2]; %ID/g liver): 0.43 ± 0.02 %ID/g
tissue uptake at 1 h ([2]; %ID/g spleen): 0.94 ± 0.11 %ID/g
tissue uptake at 2 h ([2]; %ID/g spleen): 0.62 ± 0.04 %ID/g
tissue uptake at 18 h ([2]; %ID/g spleen): 0.33 ± 0.02 %ID/g
tissue uptake at 2 h ([2]; Mean %ID/g for H727 tumors): 0.68 ± 0.06 %ID/g
tissue uptake at 18 h ([2]; Mean %ID/g for H727 tumors): 0.63 ± 0.04 %ID/g
tissue to tissue ratio at 1 h ([2]; Tumor-to-blood ratio): 12.7
tissue to tissue ratio at 2 h ([2]; Tumor-to-blood ratio): 37.2
tissue to tissue ratio at 18 h ([2]; Tumor-to-blood ratio): 20.2
tissue to tissue ratio at 1 h ([2]; Tumor-to-intestine ratio): 0.72 ± 0.08
tissue to tissue ratio at 2 h ([2]; Tumor-to-intestine ratio): 1.06 ± 0.11
tissue to tissue ratio at 18 h ([2]; Tumor-to-intestine ratio): 1.53 ± 0.11
tissue to tissue ratio at 1 h ([2]; Tumor-to-liver ratio): 1.08 ± 0.11
tissue to tissue ratio at 2 h ([2]; Tumor-to-liver ratio): 1.03 ± 0.11
tissue to tissue ratio at 18 h ([2]; Tumor-to-liver ratio): 1.54 ± 0.1
tissue to tissue ratio ([2]; Tumor-to-muscle ratio): 6.5 ± 0.7
tissue to tissue ratio at 1 h ([2]; Tumor-to-muscle ratio): 4.99 ± 0.59
tissue to tissue ratio at 2 h ([2]; Tumor-to-muscle ratio): 7.34 ± 1.16
tissue to tissue ratio at 18 h ([2]; Tumor-to-muscle ratio): 7.09 ± 0.52
tissue to tissue ratio at 1 h ([2]; 1 h p.i., biodistribution, H727 xenograft mice, read-out: Tumor-to-kidney ratio): 0.51 ± 0.05
tissue uptake at 1 h ([2]; 1 h p.i., i.v. 2.0 ± 0.7 MBq, gamma counter, mean ± SEM, read-out: Mean %ID/g for H727 tumors): 1.15 ± 0.13 %ID/g
tissue to tissue ratio at 18 h ([2]; 18 h p.i., biodistribution, H727 xenograft mice, read-out: Tumor-to-kidney ratio): 1.2 ± 0.09
%ID/g intestines [3]: 0.4 %ID/g
%ID/g kidneys [3]: 0.5 %ID/g
%ID/g liver [3]: 0.4 %ID/g

^68Ga-NODAGA-c(RGDfK) (head to tail)
tumor-to-blood ratio, times higher than ^64Cu-NODAGA-c(RGDfK) (U87MG xenograft tumors): 3 times
